Reference: publication PMC7315737, “The putative Escherichia coli dehydrogenase YjhC metabolises two dehydrated forms of N-acetylneuraminate produced by some sialidases” (Bioscience Reports, 2020)

Tests used:
Assay type in all cases: biochemical, Escherichia coli
[1] = substrate: NC(=O)c1ccc[n+]([C@@H]2O[C@H](COP(=O)(O)OP(=O)(O)OC[C@H]3O[C@@H](n4cnc5c(N)ncnc54)[C@H](O)[C@@H]3O)[C@@H](O)[C@H]2O)c1; assay: Neu5Ac formation versus NAD+ concentration, endpoint assay; settings: 1 mM 2,7-AN, 0.45 µM YjhC, 30 mM HEPES pH 7.5, 10 mM KCl, 1 mM MgCl2, 37°C, Ka is a half-activation constant, not an association constant, varied: cofactor
[2] = substrate: CC(=O)N[C@H]1[C@H]2O[C@@](C(=O)O)(C[C@@H]1O)O[C@@H]2[C@H](O)CO; assay: purified protein; settings: 50 µM NAD+, 30 mM HEPES pH 7.5, 10 mM KCl, 1 mM MgCl2, 37°C, sigmoidal, Hill coefficient 2.20
[3] = substrate: [H][C@@]1([C@H](O)[C@H](O)CO)OC(C(=O)O)=C[C@H](O)[C@H]1NC(C)=O; assay: purified protein; settings: 50 µM NAD+, 30 mM HEPES pH 7.5, 10 mM KCl, 1 mM MgCl2, 37°C, sigmoidal, Hill coefficient 2.59

B1: YjhC (Escherichia coli K-12) (protein)
chain: MINYGVVGVGYFGAELARFMNMHDNAKITCVYDPENGENIARELQCINMSSLDALVSSKLVDCVIVATPNYLHKEPVIKAAKNKKHVFCEKPIALSYEDCVDMVKACKEAGVTFMAGHIMNFFNGVQYARKLIKEGVIGEILSCHTKRNGWENKQERLSWKKMKEQSGGHLYHHIHELDCVQHLLGEIPETVTMIGGNLAHSGPGFGNEDDMLFMTLEFPSGKLATLEWGSAFNWPEHYVIINGTKGSIKIDMQETAGSLRIGGQTKHFLVHETQEEDDDRRKGNMTSEMDGAIAYGHPGKKTPLWLASLIRKETLFLHNILCGAKPEEDYIDLLNGEAAMSAIATADAATLSRSQDRKVKISEIIKHTSVM
notes: full-length ORF from ASKA library in pCA24N, N-terminal His6-tag kept, expressed in E. coli BL21
- K0.5 [1]: 0.84 µM
- K0.5 [2]: 0.45 mM
- K0.5 [3]: 0.30 mM
